Results from patent publication US6645939 (MERCK, dated 2003).

What was measured:
[1] = target: T1, α4β7 integrin on RPMI-8866 cells (human, UniProt P13612 34-1032; P26010 20-798); experiment: radiolabeled VCAM-Ig (<500 pM) on RPMI-8866 cells, MnCl2, filter plates, scintillation counting
T1 construct: whole, on cells; Endogenous integrin on RPMI-8866 cells; also called LPAM-1
Procedure: (§1) Compounds of this invention were prepared in DMSO at 100× the desired final assay concentration. Final concentrations were selected from a range between 0.001 nM-100 μM. […] The plates were incubated at room temperature for 45 minutes on a plate shaker at 200 rpm, filtered on a vacuum box, and washed on the same apparatus by the addition of 100 μL of binding buffer containing 1mM MnCl_2. After insertion of the multiscreen plates into adapter plates (Packard, Meriden, Coon., cat# 6005178), 100 μL of Microscint-20 (Packard cat# 6013621) was added to each well. The plates were then sealed, placed on a shaker for 30 seconds, and counted on a Topcount microplate scintillation counter (Packard). Control wells containing DMSO alone were used to determine the level of VCAM-Ig binding corresponding to 0% inhibition. […] Percent inhibition was then calculated for each test well and the IC$50$ was determined from a ten point titration using a validated four parameter fit algorithm.

[2] = target: T2, VLA-4 (α4β1) on Jurkat cells, clone E6-1 (UniProt P13612 34-1032; P05556 21-798, limits assumed); experiment: radiolabeled VCAM-Ig (~100 pM) on Jurkat cells, 1 mM MnCl2, filter plates, scintillation counting
T2 construct: whole, on cells; Endogenous integrin on Jurkat cells; also called very late antigen-4; CD49d/CD29
T2 sequence (P13612 34-1032 limits assumed, chain 1 of 2): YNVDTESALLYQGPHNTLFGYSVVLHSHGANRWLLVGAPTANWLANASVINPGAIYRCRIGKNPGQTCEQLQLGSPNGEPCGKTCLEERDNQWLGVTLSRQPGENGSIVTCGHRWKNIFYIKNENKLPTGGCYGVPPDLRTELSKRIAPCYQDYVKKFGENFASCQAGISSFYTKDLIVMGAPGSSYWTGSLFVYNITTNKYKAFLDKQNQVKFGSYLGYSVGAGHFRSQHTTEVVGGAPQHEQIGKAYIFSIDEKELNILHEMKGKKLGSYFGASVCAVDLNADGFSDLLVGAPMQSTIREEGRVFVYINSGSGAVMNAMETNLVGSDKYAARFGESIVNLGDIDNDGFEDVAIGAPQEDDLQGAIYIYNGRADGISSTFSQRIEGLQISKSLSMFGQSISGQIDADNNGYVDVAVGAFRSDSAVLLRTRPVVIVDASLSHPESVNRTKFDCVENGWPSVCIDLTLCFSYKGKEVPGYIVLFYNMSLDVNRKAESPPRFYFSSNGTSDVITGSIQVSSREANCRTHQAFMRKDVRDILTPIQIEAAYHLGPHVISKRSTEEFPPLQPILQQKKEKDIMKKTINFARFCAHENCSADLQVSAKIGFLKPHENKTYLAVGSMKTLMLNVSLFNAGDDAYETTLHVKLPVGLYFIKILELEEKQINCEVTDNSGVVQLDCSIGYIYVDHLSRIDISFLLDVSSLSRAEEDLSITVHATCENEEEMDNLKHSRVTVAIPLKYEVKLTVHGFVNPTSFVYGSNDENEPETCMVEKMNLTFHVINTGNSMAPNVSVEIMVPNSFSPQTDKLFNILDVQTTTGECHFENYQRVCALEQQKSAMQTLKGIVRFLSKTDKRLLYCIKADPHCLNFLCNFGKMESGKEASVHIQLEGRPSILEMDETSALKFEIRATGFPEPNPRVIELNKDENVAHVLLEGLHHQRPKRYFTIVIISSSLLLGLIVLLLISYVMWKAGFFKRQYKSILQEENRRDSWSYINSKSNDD
T2 sequence (P05556 21-798 limits assumed, chain 2 of 2): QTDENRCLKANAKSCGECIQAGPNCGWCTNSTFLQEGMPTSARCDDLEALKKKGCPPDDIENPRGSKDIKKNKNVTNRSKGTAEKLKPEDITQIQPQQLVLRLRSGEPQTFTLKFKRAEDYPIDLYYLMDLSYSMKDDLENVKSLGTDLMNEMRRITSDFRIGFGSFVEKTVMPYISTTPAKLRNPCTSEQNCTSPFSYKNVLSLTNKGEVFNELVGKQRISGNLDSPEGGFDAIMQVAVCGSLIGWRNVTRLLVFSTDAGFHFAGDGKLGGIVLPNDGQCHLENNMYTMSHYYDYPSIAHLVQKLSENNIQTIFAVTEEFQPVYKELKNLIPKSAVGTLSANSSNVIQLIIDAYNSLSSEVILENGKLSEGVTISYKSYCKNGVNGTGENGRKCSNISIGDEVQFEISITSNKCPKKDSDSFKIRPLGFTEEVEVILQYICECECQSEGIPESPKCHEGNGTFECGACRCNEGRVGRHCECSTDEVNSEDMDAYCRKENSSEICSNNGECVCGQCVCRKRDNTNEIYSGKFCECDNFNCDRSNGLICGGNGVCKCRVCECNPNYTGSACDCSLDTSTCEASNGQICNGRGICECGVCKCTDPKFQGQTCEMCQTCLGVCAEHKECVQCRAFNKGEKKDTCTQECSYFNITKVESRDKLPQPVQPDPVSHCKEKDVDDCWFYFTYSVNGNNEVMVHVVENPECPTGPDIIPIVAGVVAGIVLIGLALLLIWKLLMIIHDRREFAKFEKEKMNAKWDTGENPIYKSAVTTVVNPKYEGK
Procedure: as §1, with “μM. Jurkat cells were centrifuged at 400×g for five minutes and resuspended in binding buffer (25 mM HEPES, 150 mM NaCl, 3 mM KCl, 2 mM glucose, 0.1% bovine serum albumin, pH 7.4). The cells were centrifuged again and resuspended in binding buffer supplemented with MnCl_2 at a final concentration of 1 mM.” for “μM.”, “30 minutes,” for “45 minutes on a plate shaker at 200 rpm,”, “1 mM” for “1mM”, “Conn.,” for “Coon.,”, “$IC50$” for “IC$50$”

T1 sequence (P13612 34-1032, chain 1 of 2): as the sequence (P13612 34-1032 limits assumed, chain 1 of 2) above
T1 sequence (P26010 20-798, chain 2 of 2): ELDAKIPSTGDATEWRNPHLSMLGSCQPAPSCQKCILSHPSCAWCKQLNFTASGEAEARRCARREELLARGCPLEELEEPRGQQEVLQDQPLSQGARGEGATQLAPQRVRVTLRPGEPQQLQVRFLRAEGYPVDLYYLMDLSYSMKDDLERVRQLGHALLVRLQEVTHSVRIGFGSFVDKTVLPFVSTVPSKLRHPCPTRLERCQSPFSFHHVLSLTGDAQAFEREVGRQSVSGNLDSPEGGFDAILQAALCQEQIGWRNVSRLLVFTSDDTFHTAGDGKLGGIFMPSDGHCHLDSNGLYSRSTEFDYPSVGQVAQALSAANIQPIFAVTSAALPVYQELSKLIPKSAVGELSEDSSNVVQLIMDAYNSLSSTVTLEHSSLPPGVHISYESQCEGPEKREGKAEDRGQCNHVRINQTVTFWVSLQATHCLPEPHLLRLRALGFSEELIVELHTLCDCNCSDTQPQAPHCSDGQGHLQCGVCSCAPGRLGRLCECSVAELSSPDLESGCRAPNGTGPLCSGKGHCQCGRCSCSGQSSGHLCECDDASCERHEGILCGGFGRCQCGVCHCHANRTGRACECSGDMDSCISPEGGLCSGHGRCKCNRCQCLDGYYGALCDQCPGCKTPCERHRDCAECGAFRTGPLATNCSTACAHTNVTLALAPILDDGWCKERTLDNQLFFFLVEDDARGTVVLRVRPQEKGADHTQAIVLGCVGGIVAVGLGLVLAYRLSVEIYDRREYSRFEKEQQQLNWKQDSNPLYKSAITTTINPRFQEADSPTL

binding result [1]: binds
binding result [2]: binds
B1: VCAM-Ig fusion protein (Fc fusion, not shown: small tags and cut ends)
chain: FKIETTPESRYLAQIGDSVSLTCSTTGCESPFFSWRTQIDSPLNGKVTNEGTTSTLTMNPVSFGNEHSYLCTATCESRKLEKGIQVEIYSFPKDPEIHLSGPLEAGKPITVKCSVADVYPFDRLEIDLLKGDHLMKSQEFLEDADRKSLETKSLEVTFTPVIEDIGKVLVCRAKLHIDEMDSVPTVRQAVKEL
modifications: labeled with 125I-Bolton Hunter reagent (sites not given)
